Reference: US20180334496A1 (KODIAK SCIENCES, published 2018)

Columns and labels:
[1] = target: T1, human complement factor D purified from serum (human, UniProt P00746 26-253); test: SPR MX96
T1 construct: serum-purified (CompTech); also called hCFD-Comptech; CFD

[2] = target: T2, recombinant cynomolgus CFD, His-tagged (cynomolgus); test: SPR MX96
T2 construct: also called rcyCFD-His; recombinant Cyno-CFD

[3] = target: T3, recombinant human CFD, His-tagged (human, UniProt P00746 26-253); test: SPR MX96
T3 construct: also called rhCFD-His
T3 sequence (P00746 26-253 limits assumed): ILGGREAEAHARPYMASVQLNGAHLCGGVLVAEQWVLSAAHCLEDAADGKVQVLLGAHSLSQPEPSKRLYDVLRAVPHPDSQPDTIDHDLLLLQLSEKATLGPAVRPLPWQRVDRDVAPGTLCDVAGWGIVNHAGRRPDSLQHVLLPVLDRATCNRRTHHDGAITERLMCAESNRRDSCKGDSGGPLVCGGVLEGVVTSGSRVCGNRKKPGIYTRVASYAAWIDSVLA

[4] = target: T4, recombinant human CFD mutant 1 (R157A, R207A), His-tagged (human, UniProt P00746 26-253); test: SPR MX96
T4 construct: positions are linear positions in the mature protein; also called rhCFD-mut1-His; Mut1
T4 sequence (P00746 26-253 R182A/R232A limits assumed): as the sequence (P00746 26-253 limits assumed) above, with R157A, R207A counted along it

[5] = target: T1, human complement factor D purified from …; test: Biacore, protein A capture
[6] = target: T5, serum purified human Complement Factor D (human, UniProt P00746 26-253); test: SPR Biacore, antibody on protein A chip, single cycle kinetics, 25 C
T5 construct: Serum purified protein flowed over the captured antibodies; also called CFD; human CFD
T5 sequence (P00746 26-253): as the sequence (P00746 26-253 limits assumed) above

[7] = target: T5, serum purified human Complement Factor D; test: SPR Biacore, antibody on protein A chip, single cycle kinetics, 37 C
[8] = target: T5, serum purified human Complement Factor D; test: SPR Biacore, antibody on protein A chip, single cycle kinetics, 25 C; remark: listed apart in the source
[9] = target: T5, serum purified human Complement Factor D; test: SPR Biacore, antibody on protein A chip, single cycle kinetics, 37 C; remark: listed apart in the source

T1 sequence (P00746 26-253): as the sequence (P00746 26-253 limits assumed) above

B1: KCD018 (antibody, V domains shown)
VH: QVQLQQSAAELARPGASVKMSCKASGYTFTSYTVHWVKQRPGQGLEWIGYINPSSGFTDYNQKFKDKTTLTADISSSTAYIQLSSLTSEDSAVYYCARRGVNWSWFAYWGQGTLVTVSA
VL: NIMMTQSPSSLAVSAGEKVTMSCKSSQSVLYSSNQKNYLAWYQQKPGQSPQLLIYWASTRESGVPERFTGSGSGTDFTLTISSVQAEDLAVYYCHQYLSSWTFGGGTKLEIK
With B1 the Kd [1] was 41 nM, the Kd [2] was 52 nM and the Kd [3] was 41 nM. It also gave a Kd [4] of 99 nM.

B2: KCD008 (antibody, V domains shown)
VH: EVQLQQSGPELVKAGASVKMSCTASGFNIKDTYMHWVKQRPEQGLAWIGRIDPANGNIKYDPKFQGKATITADTSSNTAYLQLSSLTSDDTAVYYCTSAMDYWGQGTSVTVSS
VL: QIVLTQSPEIMSASPGEKVTMTCSARSSVSYMYWYQQKPGSSPRLLIYDTSNLASGVPVRFSGSGSGTSYSLTISRMETEDAATYYCQQWSTYPFTFGSGTKLEIK
Work on B2 yielded a Kd [1] of 4.4 nM, a Kd [2] of 66 nM and a Kd [3] of 3.2 nM. The Kd [4] was 5.7 nM.

B3: KCD119 TAF heavy chain / KCD119 TAF light chain (antibody, V domains shown)
VH: EVQLVESGGGLVQPGGSLRLSCAASGYTFTDYYMNWVRQAPGKGLEWIGDINPNTGDTSYNADFKRRFTFSLDTSKSTAYLQMNSLRAEDTAVYYCTREGPSFAYWGQGTLVTVSS
VL: DIQLTQSPSSLSASVGDRVTITCRSSQTIVHSNGDTYLEWYQQKPGKAPNLLIYKVSNRFSGVPSRFSGSGSGTDFTLTISSLQPEDFATYYCFQGSHVPPTFGQGTKVEIK
notes: humanized full IgG captured on protein A; also called TAF KCD119
Work on B3 yielded a Kd [5] of 0.23 nM, a koff [5] of 0.00103 s⁻¹ and a kon [5] of 4.46e+06 M⁻¹ s⁻¹.

B4: KCD119 TAF / KCD119 TAF (antibody, V domains shown)
VH: EVQLVESGGGLVQPGGSLRLSCAASGYTFTDYYMNWVRQAPGKGLEWIGDINPNTGDTSYNADFKRRFTFSLDTSKSTAYLQMNSLRAEDTAVYYCTREGPSFAYWGQGTLVTVSS
VL: DIQLTQSPSSLSASVGDRVTITCRSSQTIVHSNGDTYLEWYQQKPGKAPNLLIYKVSNRFSGVPSRFSGSGSGTDFTLTISSLQPEDFATYYCFQGSHVPPTFGQGTKVEIK
notes: Humanized KCD119; tested as full antibody captured on protein A; also called D19 TAF
In the case of B4, the Kd [6] is reported as 0.113 nM, the koff [6] is reported as 0.00155 s⁻¹ and the kon [6] is reported as 1.38e+07 M⁻¹ s⁻¹. For the same binder, the Kd [7] was 0.499 nM, the koff [7] was 0.00628 s⁻¹ and the kon [7] was 1.26e+07 M⁻¹ s⁻¹. It also gave a Kd [8] of 0.113 nM, a koff [8] of 0.00155 s⁻¹ and a kon [8] of 1.38e+07 M⁻¹ s⁻¹. It also gave a Kd [9] of 0.499 nM, a koff [9] of 0.00628 s⁻¹ and a kon [9] of 1.26e+07 M⁻¹ s⁻¹.

B5: 54V heavy chain / 101V light chain (antibody, V domains shown)
VH: EVQLVESGGGLVQPGGSLRLSCAASGYTFTDYYMNWVRQAPGKGLEWIGDINPVTGDTSYNADFKRRFTFSLDTSKSTAYLQMNSLRAEDTAVYYCTREGPSFAYWGQGTLVTVSS
VL: DIQLTQSPSSLSASVGDRVTITCRSSQTIVHSNGDTYLEWYQQKPGKAPNLLIYKVSNRFSGVPSRFSGSGSGTDFTLTISSLQPEDFATYYCFQGSHVPVTFGQGTKVEIK
notes: IgG
B5 was tested, and the Kd [5] was 0.0949 nM, the koff [5] was 0.000463 s⁻¹ and the kon [5] was 4.88e+06 M⁻¹ s⁻¹.

B6: 54V59D heavy chain / KCD119 TAF light chain (antibody, V domains shown)
VH: EVQLVESGGGLVQPGGSLRLSCAASGYTFTDYYMNWVRQAPGKGLEWIGDINPVTGDTDYNADFKRRFTFSLDTSKSTAYLQMNSLRAEDTAVYYCTREGPSFAYWGQGTLVTVSS
VL: DIQLTQSPSSLSASVGDRVTITCRSSQTIVHSNGDTYLEWYQQKPGKAPNLLIYKVSNRFSGVPSRFSGSGSGTDFTLTISSLQPEDFATYYCFQGSHVPPTFGQGTKVEIK
notes: IgG
B6 gave a Kd [5] of 0.0526 nM, a koff [5] of 0.000307 s⁻¹ and a kon [5] of 5.85e+06 M⁻¹ s⁻¹.

B7: 31S34I54I59D84S / 54R101V (antibody, V domains shown)
VH: EVQLVESGGGLVQPGGSLRLSCAASGYTFTSYYINWVRQAPGKGLEWIGDINPITGDTDYNADFKRRFTFSLDTSKSTAYLQMSSLRAEDTAVYYCTREGPSFAYWGQGTLVTVSS
VL: DIQLTQSPSSLSASVGDRVTITCRSSQTIVHSNGDTYLEWYQQKPGKAPNLLIRKVSNRFSGVPSRFSGSGSGTDFTLTISSLQPEDFATYYCFQGSHVPVTFGQGTKVEIKR
notes: KCD119 TAF variant; also called 3I534I54I59D84S / 54R101V
With B7 the Kd [6] was less than 0.000602 nM, the koff [6] was less than 1e-05 s⁻¹ and the kon [6] was 1.66e+07 M⁻¹ s⁻¹. For the same binder, the Kd [7] was 0.00392 nM, the koff [7] was 0.000137 s⁻¹ and the kon [7] was 3.5e+07 M⁻¹ s⁻¹. For the same binder, the Kd [8] was less than 0.000602 nM, the koff [8] was less than 1e-05 s⁻¹ and the kon [8] was 1.66e+07 M⁻¹ s⁻¹. It also gave a Kd [9] of 0.00392 nM, a koff [9] of 0.000137 s⁻¹ and a kon [9] of 3.5e+07 M⁻¹ s⁻¹.

B8: 54V heavy chain / KCD119 TAF light chain (antibody, V domains shown)
VH: EVQLVESGGGLVQPGGSLRLSCAASGYTFTDYYMNWVRQAPGKGLEWIGDINPVTGDTSYNADFKRRFTFSLDTSKSTAYLQMNSLRAEDTAVYYCTREGPSFAYWGQGTLVTVSS
VL: DIQLTQSPSSLSASVGDRVTITCRSSQTIVHSNGDTYLEWYQQKPGKAPNLLIYKVSNRFSGVPSRFSGSGSGTDFTLTISSLQPEDFATYYCFQGSHVPPTFGQGTKVEIK
notes: IgG; also called 54V/wt
In the case of B8, the Kd [5] is reported as 0.153 nM, the koff [5] is reported as 0.000627 s⁻¹ and the kon [5] is reported as 4.09e+06 M⁻¹ s⁻¹.

B9: 31S34I54I59D84S / 54G101V (antibody, V domains shown)
VH: EVQLVESGGGLVQPGGSLRLSCAASGYTFTSYYINWVRQAPGKGLEWIGDINPITGDTDYNADFKRRFTFSLDTSKSTAYLQMSSLRAEDTAVYYCTREGPSFAYWGQGTLVTVSS
VL: DIQLTQSPSSLSASVGDRVTITCRSSQTIVHSNGDTYLEWYQQKPGKAPNLLIGKVSNRFSGVPSRFSGSGSGTDFTLTISSLQPEDFATYYCFQGSHVPVTFGQGTKVEIK
notes: KCD119 TAF variant; full antibody captured on protein A; also called 31S34I54I59D845 / 54G101V; 3I534I54I59D84S / 54G101V
B9 gave a kon [6] of 4.42e+06 M⁻¹ s⁻¹, a Kd [7] of 0.00611 nM and a koff [7] of 7.36e-05 s⁻¹. It also gave a kon [7] of 1.21e+07 M⁻¹ s⁻¹, a kon [8] of 4.42e+06 M⁻¹ s⁻¹ and a Kd [9] of 0.00611 nM. It also gave a koff [9] of 7.36e-05 s⁻¹ and a kon [9] of 1.21e+07 M⁻¹ s⁻¹.

B10: 54V59D heavy chain / 101V light chain (antibody, V domains shown)
VH: EVQLVESGGGLVQPGGSLRLSCAASGYTFTDYYMNWVRQAPGKGLEWIGDINPVTGDTDYNADFKRRFTFSLDTSKSTAYLQMNSLRAEDTAVYYCTREGPSFAYWGQGTLVTVSS
VL: DIQLTQSPSSLSASVGDRVTITCRSSQTIVHSNGDTYLEWYQQKPGKAPNLLIYKVSNRFSGVPSRFSGSGSGTDFTLTISSLQPEDFATYYCFQGSHVPVTFGQGTKVEIK
notes: IgG
Work on B10 yielded a Kd [5] of 0.0321 nM, a koff [5] of 0.000213 s⁻¹ and a kon [5] of 6.64e+06 M⁻¹ s⁻¹.

B11: KCD038 (antibody, V domains shown)
VH: EVQLQQSGPELVKPGTSMKISCKASGYSFADYTMNWVKQSHGKSLEWIGLINPYNGGTSYNQKFMGKATLTVDKSSSTAYMELLSLTSEDSAVYYCARWGTYSHNYDYAMDYWGQGTSVTVSS
VL: DVVMTQTPLSLPVSLGDQASISCRSSQSLVHSNGNTYLYWYFQKPGQSPKFLIYKVSNRFSGISDRFSGSGSGTDFTLKISRVEAEDLGVYFCSQSTHVPPFTFGSGTKLEIK
For B11, the Kd [1] was 37 nM, the Kd [2] was 45 nM and the Kd [3] was 48 nM. The Kd [4] was 84 nM.

B12: KCD039 (antibody, V domains shown)
VH: EVQLQQSGPEMVKPGASMKISCKASGYSFADYTLNWVKQSHGKSLEWIGLINPYNGGTSYNQKFMGKATLTVDKSSSTAYMELLSLTSEDSAVYYCTRWGTYSHNYDYAMDYWGQGTSVTVSS
VL: DVVMTQTPLSLSVSLGDQASISCRSSQSLVHSNGNTYLYWYLQKPGQSPKLLIYKVSNRFSGITDRFSGSGSGTDFTLKISRVEAEDLGVYFCSQSTHVPPFTFGSGTKLEIK
With B12 the Kd [1] was 53 nM, the Kd [2] was 39 nM and the Kd [3] was 43 nM. The Kd [4] was 70 nM.

B13: KCD135 (antibody, V domains shown)
VH: EVQLQQSGPELVKPGASVRMSCKASGYIFTDYSIHWVKQSHGKSLEWIGYINPNNGGTSYNQKFKGKATLTVNKSSTTAYMELRSLTSEDSAVYFCARDTTIVGDYWGQGTTLTVSS
VL: DIVMTQSQKFMSTSVGDRVSVTCKASQHVGTNVVWYQQKPGQSPKALIYSASYRYSGVPDRFSGSGSGTDFTLTISNVQSEDLAEYFCQQFNSYPLTFGGGTKLEIK
Work on B13 yielded a Kd [1] of 21 nM, a Kd [2] of 18 nM and a Kd [3] of 13 nM. For the same binder, the Kd [4] was 15 nM.

B14: KCD065 (antibody, V domains shown)
VH: QVQLQQSGAELARPGASVKMSCKASGYTFTTYTIHWVKQRPGQGLEWIGYINPSSDFTNYNQNFADKATLTADRSSSTAYMQLSSLTSEESAVYYCAIRLGYDRQGWYFDVWGAGTTVTVSS
VL: DIVMTQSHKFLSTSLGDRVSITCKASQDVGSAVAWYQQKPGQSPDLLIYWTFTRHTGVPDRFTGSRSGTDFTLTISNVQSGDLADYFCQQYSNYPLTFGGGTKLEIK
With B14 the Kd [1] was 3.3 nM, the Kd [2] was 25 nM and the Kd [3] was 17 nM. The Kd [4] was 25 nM.

B15: KCD050 (antibody, V domains shown)
VH: QVQLKESGPGLVAPSQSLSITCTVSGFSLNSYGVQWVRQPPGQGLEWLVVIWRDGTITYNSALKSRLSINKDNSKSQVFLKMNSLQTDDTAMYYCGRTSHYGNFNYYVMDYWGQGTAVTVSS
VL: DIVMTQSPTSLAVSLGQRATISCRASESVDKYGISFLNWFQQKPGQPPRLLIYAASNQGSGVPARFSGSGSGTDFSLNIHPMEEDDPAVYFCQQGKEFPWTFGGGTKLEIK
B15 showed a Kd [1] of 2 nM, a Kd [2] of 8.2 nM and a Kd [3] of 3.1 nM. It also gave a Kd [4] of 1.9 nM.

B16: KCD052 (antibody, V domains shown)
VH: QVQLKESGPGLVAPSQSLSITCTVSGFSLNSYGVQWVRQPPGQGLEWLGVIWRDGSITYNSALKSRLSIRKDNSKSQVFLKMNSLQTDDTAMYYCGRTSHYGNYNYYVMDYWGQGTAVTVSS
VL: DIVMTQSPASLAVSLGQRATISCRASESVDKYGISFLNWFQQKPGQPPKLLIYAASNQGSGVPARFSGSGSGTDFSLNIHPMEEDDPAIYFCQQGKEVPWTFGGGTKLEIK
B16 showed a Kd [1] of 3.1 nM, a Kd [2] of 10 nM and a Kd [3] of 3.7 nM. For the same binder, the Kd [4] was 2.5 nM.

B17: KCD210 (antibody, V domains shown)
VH: EVQLQQSGPVLVKPGASVTMSCKASGYTFTEYYMNWVKQSHGKSLDWIGVINPYSGGTSYKQKFKDKATLTVDKSSSTAYMELNGLTSEDSAVYFCVRGGLRRNYFDYWGQGTTLTVSS
VL: EIVLTQSPALMTASPGEKVTITCSVSSSISSTNLHWYQQKSGTSPKPWIFGTSNLASGVPVRFSGSGSGTSYSLTISNMEAEDAATYYCQQWNSYPFTFGTGTKLEIK
B17 gave a Kd [1] of 3.5 nM, a Kd [2] of 3.6 nM and a Kd [3] of 2.9 nM. For the same binder, the Kd [4] was 2.9 nM.
